Data reported in US5990092.

Target: GATA-6 (Homo sapiens) (UniProt Q92908)
Assay: cell_activity
Conditions: luciferase transactivation in p53-/- MEFs

Sequence of GATA-6 (Homo sapiens) (Q92908 147-595): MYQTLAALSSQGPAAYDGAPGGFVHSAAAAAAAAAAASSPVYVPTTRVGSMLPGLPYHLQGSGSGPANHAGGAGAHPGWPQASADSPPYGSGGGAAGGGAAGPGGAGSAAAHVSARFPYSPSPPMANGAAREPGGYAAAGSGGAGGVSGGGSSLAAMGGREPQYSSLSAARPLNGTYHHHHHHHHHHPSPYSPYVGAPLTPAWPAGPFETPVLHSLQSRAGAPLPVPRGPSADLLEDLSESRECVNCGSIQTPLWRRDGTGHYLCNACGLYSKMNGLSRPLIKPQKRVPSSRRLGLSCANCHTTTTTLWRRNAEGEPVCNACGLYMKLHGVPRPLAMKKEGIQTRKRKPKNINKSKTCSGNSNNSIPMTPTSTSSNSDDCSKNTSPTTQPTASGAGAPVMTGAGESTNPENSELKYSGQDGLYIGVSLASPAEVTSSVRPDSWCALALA

p21 promoter 3.8 kbp
activity: 3.7 fold
